Measured values reported in patent publication US20210071139A1.

Key:
Kifc5b; Kifc1 = test: anti-TOX IP from EL4 nuclear extract, LC-MS/MS, MiST
Dap3 = Dap3 (UniProt Q9ER88); test: as above
Rrp1b = Rrp1b (UniProt Q91YK2); test: as above
Myo6 = Myo6 (UniProt Q64331); test: as above
Ppp1r10 = Ppp1r10 (UniProt Q80W00); test: as above
Pno1 = Pno1 (UniProt Q9CPS7); test: as above
Ing2 = Ing2 (UniProt Q9ESK4); test: as above
Chtop = Chtop (UniProt Q9CY57); test: as above
Tpm4 = Tpm4 (UniProt Q6IRU2); test: as above
Tpm4, sequence (Q6IRU2 2-248 limits assumed): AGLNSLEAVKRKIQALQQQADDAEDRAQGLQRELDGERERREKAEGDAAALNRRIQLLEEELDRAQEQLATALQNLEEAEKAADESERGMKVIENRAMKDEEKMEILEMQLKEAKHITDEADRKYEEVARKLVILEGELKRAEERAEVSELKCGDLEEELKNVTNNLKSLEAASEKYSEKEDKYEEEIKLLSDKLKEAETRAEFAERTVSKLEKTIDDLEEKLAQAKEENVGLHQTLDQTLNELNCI

Trim21 = Trim21 (UniProt Q62191); test: as above
Sltm = Sltm (UniProt Q8CH25); test: as above
Sltm, sequence (Q8CH25 2-1031 limits assumed): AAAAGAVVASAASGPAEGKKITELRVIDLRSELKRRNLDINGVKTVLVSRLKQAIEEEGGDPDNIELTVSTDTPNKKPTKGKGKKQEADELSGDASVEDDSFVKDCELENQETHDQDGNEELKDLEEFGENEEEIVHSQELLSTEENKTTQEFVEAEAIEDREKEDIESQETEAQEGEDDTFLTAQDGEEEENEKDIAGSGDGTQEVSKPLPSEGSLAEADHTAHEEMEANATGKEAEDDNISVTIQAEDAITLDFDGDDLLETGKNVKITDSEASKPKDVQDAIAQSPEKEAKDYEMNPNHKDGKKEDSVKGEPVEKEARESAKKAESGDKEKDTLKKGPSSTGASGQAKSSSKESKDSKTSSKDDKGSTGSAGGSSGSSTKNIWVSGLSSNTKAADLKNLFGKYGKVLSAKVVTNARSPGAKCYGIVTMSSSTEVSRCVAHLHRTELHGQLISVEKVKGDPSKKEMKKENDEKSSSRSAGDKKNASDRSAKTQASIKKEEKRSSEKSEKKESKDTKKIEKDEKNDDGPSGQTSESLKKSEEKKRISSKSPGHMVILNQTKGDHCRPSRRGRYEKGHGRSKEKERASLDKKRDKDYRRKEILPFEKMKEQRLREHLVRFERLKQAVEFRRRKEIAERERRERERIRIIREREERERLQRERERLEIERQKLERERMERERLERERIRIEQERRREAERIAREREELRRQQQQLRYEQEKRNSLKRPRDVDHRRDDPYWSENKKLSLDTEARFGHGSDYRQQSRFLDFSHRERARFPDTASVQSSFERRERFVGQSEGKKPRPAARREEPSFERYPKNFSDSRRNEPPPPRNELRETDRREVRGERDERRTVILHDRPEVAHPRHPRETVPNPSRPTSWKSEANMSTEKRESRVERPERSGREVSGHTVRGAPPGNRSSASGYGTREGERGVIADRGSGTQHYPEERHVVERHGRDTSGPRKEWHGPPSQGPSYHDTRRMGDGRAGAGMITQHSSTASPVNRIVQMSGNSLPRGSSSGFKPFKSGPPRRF

Thoc2 = Thoc2 (UniProt B1AZI6); test: as above
Gm10094; Sap18 = test: as above
Utp18 = Utp18 (UniProt Q5SSI6); test: as above
Utp18, sequence (Q5SSI6 whole entry): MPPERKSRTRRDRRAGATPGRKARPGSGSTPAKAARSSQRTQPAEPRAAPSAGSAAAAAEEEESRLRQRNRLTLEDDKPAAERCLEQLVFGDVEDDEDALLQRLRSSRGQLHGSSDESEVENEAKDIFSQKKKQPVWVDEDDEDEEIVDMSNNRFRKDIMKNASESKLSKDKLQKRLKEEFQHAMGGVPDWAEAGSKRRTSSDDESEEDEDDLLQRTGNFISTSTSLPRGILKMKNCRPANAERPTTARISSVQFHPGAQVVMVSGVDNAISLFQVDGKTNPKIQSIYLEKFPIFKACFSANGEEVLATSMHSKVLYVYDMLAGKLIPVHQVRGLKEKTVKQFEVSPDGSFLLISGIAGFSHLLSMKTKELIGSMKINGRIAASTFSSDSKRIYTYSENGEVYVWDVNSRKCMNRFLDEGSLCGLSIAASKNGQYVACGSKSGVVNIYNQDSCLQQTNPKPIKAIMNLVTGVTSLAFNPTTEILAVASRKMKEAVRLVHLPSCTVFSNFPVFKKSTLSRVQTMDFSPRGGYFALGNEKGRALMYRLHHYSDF

Dlgap5 = Dlgap5 (UniProt Q8K4R9); test: as above
Terf2ip = Terf2ip (UniProt Q91VL8); test: as above
Anln = Anln (UniProt Q8K298); test: as above
Ptcd3 = Ptcd3 (UniProt Q14C51); test: as above
Aldh18a1 = Aldh18a1 (UniProt Q9Z110); test: as above
Aldh18a1, sequence (Q9Z110 whole entry): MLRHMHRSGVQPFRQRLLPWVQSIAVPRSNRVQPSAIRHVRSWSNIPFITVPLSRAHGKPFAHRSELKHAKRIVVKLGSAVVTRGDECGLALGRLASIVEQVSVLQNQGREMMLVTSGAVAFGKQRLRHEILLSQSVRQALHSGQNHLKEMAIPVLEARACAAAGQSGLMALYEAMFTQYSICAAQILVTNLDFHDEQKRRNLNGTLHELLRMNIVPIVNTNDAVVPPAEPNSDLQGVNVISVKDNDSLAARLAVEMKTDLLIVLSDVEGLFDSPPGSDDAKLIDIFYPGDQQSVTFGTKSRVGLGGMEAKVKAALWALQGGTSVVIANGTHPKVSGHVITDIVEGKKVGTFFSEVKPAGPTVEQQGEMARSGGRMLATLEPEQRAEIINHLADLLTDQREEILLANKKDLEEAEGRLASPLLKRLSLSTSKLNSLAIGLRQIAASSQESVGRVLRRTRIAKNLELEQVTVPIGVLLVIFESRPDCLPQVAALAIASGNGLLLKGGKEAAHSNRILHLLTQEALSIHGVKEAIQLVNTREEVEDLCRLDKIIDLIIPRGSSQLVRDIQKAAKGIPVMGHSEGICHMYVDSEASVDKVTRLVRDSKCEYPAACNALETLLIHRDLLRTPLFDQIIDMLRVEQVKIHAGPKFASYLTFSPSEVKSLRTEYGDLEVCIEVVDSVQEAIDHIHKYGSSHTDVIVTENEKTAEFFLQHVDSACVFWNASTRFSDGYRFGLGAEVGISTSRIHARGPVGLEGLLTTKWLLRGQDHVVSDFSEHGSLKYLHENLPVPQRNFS

Cdc27 = Cdc27 (UniProt A2A6Q5); test: as above
Zfr = Zfr (UniProt O88532); test: as above
Cdc23 = Cdc23 (UniProt Q8BGZ4); test: as above
Safb; Safb2; mKIAA0138 = test: as above
Ddx55 = Ddx55 (UniProt Q6ZPL9); test: as above
Dync1li1 = Dync1li1 (UniProt Q8R1Q8); test: TOX IP-MS, EL4 nuclear extract, MiST
env = test: TOX IP-MS, EL4 nuclear extract, MiST

Pno1, sequence (Q9CPS7 whole entry): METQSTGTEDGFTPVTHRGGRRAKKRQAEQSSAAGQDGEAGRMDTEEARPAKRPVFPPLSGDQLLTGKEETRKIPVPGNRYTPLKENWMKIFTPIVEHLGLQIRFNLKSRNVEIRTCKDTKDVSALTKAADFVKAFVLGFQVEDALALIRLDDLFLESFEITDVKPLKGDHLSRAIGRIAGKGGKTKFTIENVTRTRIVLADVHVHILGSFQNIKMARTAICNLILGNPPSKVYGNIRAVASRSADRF
TOX, sequence (Q66JW3 whole entry): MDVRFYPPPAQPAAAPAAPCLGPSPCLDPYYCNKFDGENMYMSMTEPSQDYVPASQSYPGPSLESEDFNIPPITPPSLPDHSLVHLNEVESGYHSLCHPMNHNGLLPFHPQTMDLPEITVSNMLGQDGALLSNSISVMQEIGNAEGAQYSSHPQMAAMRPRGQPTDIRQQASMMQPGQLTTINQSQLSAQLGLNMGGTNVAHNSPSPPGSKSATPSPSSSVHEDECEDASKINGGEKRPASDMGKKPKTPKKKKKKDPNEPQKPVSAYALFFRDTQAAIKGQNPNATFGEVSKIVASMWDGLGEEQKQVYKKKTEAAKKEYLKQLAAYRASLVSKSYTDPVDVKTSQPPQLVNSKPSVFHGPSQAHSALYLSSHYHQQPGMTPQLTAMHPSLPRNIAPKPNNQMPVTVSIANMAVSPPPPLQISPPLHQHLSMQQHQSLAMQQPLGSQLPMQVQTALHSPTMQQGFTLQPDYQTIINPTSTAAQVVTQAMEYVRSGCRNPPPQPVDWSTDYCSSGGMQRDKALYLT
Tox, sequence (Q66JW3 whole entry): as above
Rrp1b, sequence (Q91YK2 whole entry): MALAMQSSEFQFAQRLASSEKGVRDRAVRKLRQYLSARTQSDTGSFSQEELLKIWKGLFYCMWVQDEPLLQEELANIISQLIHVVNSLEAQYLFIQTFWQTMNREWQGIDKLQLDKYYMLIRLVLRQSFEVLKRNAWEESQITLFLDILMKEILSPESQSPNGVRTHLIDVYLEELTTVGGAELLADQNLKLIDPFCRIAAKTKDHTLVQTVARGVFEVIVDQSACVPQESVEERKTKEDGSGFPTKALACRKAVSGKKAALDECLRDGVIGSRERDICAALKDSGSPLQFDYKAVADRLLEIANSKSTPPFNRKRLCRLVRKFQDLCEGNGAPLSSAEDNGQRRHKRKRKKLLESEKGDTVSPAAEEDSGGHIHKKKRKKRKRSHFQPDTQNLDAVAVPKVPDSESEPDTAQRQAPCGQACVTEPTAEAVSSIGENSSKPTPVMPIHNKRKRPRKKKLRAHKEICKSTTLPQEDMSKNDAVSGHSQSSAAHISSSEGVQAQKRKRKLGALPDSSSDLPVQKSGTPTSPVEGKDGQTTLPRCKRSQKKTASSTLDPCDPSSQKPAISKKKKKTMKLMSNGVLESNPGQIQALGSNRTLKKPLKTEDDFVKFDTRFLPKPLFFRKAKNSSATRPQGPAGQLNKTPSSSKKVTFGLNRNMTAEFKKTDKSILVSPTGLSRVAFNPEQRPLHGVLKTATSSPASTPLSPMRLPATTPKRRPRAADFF
Ing2, sequence (Q9ESK4 whole entry): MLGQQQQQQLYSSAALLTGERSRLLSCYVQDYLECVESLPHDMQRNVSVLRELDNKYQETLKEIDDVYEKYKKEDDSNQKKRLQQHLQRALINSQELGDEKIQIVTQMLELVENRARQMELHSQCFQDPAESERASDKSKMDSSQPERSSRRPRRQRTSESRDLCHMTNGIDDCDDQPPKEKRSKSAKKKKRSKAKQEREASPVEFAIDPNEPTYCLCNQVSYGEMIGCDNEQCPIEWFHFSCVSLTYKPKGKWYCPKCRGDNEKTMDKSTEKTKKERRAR
Chtop, sequence (Q9CY57 2-249 limits assumed): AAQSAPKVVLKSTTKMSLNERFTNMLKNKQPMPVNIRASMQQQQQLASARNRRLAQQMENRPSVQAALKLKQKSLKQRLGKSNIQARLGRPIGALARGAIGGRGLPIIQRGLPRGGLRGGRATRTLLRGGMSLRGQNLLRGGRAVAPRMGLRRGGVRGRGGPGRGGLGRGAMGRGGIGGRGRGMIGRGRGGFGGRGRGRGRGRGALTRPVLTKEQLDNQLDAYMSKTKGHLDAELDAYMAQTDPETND

## TOX (from UniProt Q66JW3 1-526)
Kifc5b; Kifc1
  Abundance: 1.73e-06
  MiST Score: 0.88
  Reproducibility: 0.63
  Specificity: 1
Dap3
  Abundance: 2.69e-06
  MiST Score: 0.859
  Reproducibility: 0.561
  Specificity: 1
Rrp1b
  Abundance: 4.86e-06
  MiST Score: 0.875
  Reproducibility: 0.955
  Specificity: 0.847
Myo6
  Abundance: 5.25e-07
  MiST Score: 0.88
  Reproducibility: 0.63
  Specificity: 1
Ppp1r10
  Abundance: 1.37e-05
  MiST Score: 0.868
  Reproducibility: 0.65
  Specificity: 0.974
Pno1
  Abundance: 0.000116
  MiST Score: 0.884
  Reproducibility: 0.988
  Specificity: 0.845
Ing2
  Abundance: 2.44e-05
  MiST Score: 0.878
  Reproducibility: 0.625
  Specificity: 1
Chtop
  Abundance: 0.000479
  MiST Score: 0.862
  Reproducibility: 0.936
  Specificity: 0.837
Tpm4
  Abundance: 0.000138
  MiST Score: 0.859
  Reproducibility: 0.979
  Specificity: 0.812
Trim21
  Abundance: 4.56e-06
  MiST Score: 0.858
  Reproducibility: 0.56
  Specificity: 1
Sltm
  Abundance: 2.12e-06
  MiST Score: 0.864
  Reproducibility: 0.988
  Specificity: 0.816
Thoc2
  Abundance: 1.6e-06
  MiST Score: 0.859
  Reproducibility: 0.9
  Specificity: 0.848
Gm10094; Sap18
  Abundance: 2.26e-05
  MiST Score: 0.878
  Reproducibility: 0.625
  Specificity: 1
Utp18
  Abundance: 1.83e-05
  MiST Score: 0.865
  Reproducibility: 0.582
  Specificity: 1
Dlgap5
  Abundance: 6.65e-06
  MiST Score: 0.876
  Reproducibility: 0.81
  Specificity: 0.914
Terf2ip
  Abundance: 2.33e-05
  MiST Score: 0.869
  Reproducibility: 0.595
  Specificity: 1
Anln
  Abundance: 4.57e-07
  MiST Score: 0.861
  Reproducibility: 0.567
  Specificity: 1
Ptcd3
  Abundance: 1.85e-06
  MiST Score: 0.88
  Reproducibility: 0.631
  Specificity: 1
Aldh18a1
  Abundance: 9.69e-06
  MiST Score: 0.887
  Reproducibility: 0.702
  Specificity: 0.979
Cdc27
  Abundance: 6.71e-06
  MiST Score: 0.87
  Reproducibility: 0.597
  Specificity: 1
Zfr
  Abundance: 2.44e-06
  MiST Score: 0.866
  Reproducibility: 0.991
  Specificity: 0.817
Cdc23
  Abundance: 6.55e-06
  MiST Score: 0.872
  Reproducibility: 0.758
  Specificity: 0.931
Safb; Safb2; mKIAA0138
  Abundance: 3.18e-06
  MiST Score: 0.873
  Reproducibility: 0.609
  Specificity: 1
Ddx55
  Abundance: 2.21e-06
  MiST Score: 0.863
  Reproducibility: 0.574
  Specificity: 1

## Tox (from UniProt Q66JW3 1-526)
Dync1li1
  Abundance: 5.91e-06
  MiST Score: 0.976
  Reproducibility: 0.941
  Specificity: 1
env
  Abundance: 0.000113
  MiST Score: 0.977
  Reproducibility: 0.946
  Specificity: 1
